Measurements taken from US20260176603, “TYPE II CAS PROTEINS AND APPLICATIONS THEREOF” (Alia Therapeutics Srl, published 2026).

B1: gRNA-BDLP-EGFP-g2 ; EGFP target BDLP g2 (ssRNA ; dsDNA)
RNA: GGGGUAGCGGCUGAAGCACUGCAGUCUUGAGCUCGGAAACGAGACUCCAGACAAGGGGAGUCUACAACAGUAGGUUCACCCGUAGGGUUACCCCCGCGUCAUCCUCGGAAGGCGCGGGGCGAACUCUUUUUU
DNA 1: GTCGGGGTAGCGGCTGAAGCACTGCACGCCGTAGG
DNA 2: CCTACGGCGTGCAGTGCTTCAGCCGCTACCCCGAC
B2: gRNA-BDLP-EGFP-g1 ; EGFP target BDLP g1 (ssRNA ; dsDNA)
RNA: GCCCAUCCUGGUCGAGCUGGACGGGUCUUGAGCUCGGAAACGAGACUCCAGACAAGGGGAGUCUACAACAGUAGGUUCACCCGUAGGGUUACCCCCGCGUCAUCCUCGGAAGGCGCGGGGCGAACUCUUUUUU
DNA 1: GGTGCCCATCCTGGTCGAGCTGGACGGCGACGTAAA
DNA 2: TTTACGTCGCCGTCCAGCTCGACCAGGATGGGCACC
B3: gRNA-BDLP-EGFP-g3 ; EGFP target BDLP g3 (ssRNA ; dsDNA)
RNA: GUAGUUGCCGUCGUCCUUGAAGAAGUCUUGAGCUCGGAAACGAGACUCCAGACAAGGGGAGUCUACAACAGUAGGUUCACCCGUAGGGUUACCCCCGCGUCAUCCUCGGAAGGCGCGGGGCGAACUCUUUUUU
DNA 1: CTTGTAGTTGCCGTCGTCCTTGAAGAAGATGGTGCG
DNA 2: CGCACCATCTTCTTCAAGGACGACGGCAACTACAAG
B4: gRNA-EQSC-EGFP-g1 ; EGFP target EQSC g1 (ssRNA ; dsDNA)
RNA: GCCCAUCCUGGUCGAGCUGGACGGUCUUGAGCUCGGAAACGAGACUCCAGACAAGGGGAACCUACAACGGUAGGUUCACCCGUAGGGUUACCCCCGCGUCAUCUUCGGAAGGCGCGGGGCGAACUCUUUUUU
DNA 1: GGTGCCCATCCTGGTCGAGCTGGACGGCGACGTAAAC
DNA 2: GTTTACGTCGCCGTCCAGCTCGACCAGGATGGGCACC
B5: gRNA-EQSC-EGFP-g2 ; EGFP target EQSC g2 (ssRNA ; dsDNA)
RNA: UGCAGAUGAACUUCAGGGUCAGCGUCUUGAGCUCGGAAACGAGACUCCAGACAAGGGGAACCUACAACGGUAGGUUCACCCGUAGGGUUACCCCCGCGUCAUCUUCGGAAGGCGCGGGGCGAACUCUUUUUU
DNA 1: TGGTGCAGATGAACTTCAGGGTCAGCTTGCCGTAGGT
DNA 2: ACCTACGGCAAGCTGACCCTGAAGTTCATCTGCACCA
B6: gRNA-EQSC-EGFP-g3 ; EGFP target EQSC g3 (ssRNA ; dsDNA)
RNA: GCACGACUUCUUCAAGUCCGCCAGUCUUGAGCUCGGAAACGAGACUCCAGACAAGGGGAACCUACAACGGUAGGUUCACCCGUAGGGUUACCCCCGCGUCAUCUUCGGAAGGCGCGGGGCGAACUCUUUUUU
DNA 1: GCAGCACGACTTCTTCAAGTCCGCCATGCCCGAAGGC
DNA 2: GCCTTCGGGCATGGCGGACTTGAAGAAGTCGTGCTGC

Biological target: T1, BDLP Type II Cas (metagenomic)
T1 chain: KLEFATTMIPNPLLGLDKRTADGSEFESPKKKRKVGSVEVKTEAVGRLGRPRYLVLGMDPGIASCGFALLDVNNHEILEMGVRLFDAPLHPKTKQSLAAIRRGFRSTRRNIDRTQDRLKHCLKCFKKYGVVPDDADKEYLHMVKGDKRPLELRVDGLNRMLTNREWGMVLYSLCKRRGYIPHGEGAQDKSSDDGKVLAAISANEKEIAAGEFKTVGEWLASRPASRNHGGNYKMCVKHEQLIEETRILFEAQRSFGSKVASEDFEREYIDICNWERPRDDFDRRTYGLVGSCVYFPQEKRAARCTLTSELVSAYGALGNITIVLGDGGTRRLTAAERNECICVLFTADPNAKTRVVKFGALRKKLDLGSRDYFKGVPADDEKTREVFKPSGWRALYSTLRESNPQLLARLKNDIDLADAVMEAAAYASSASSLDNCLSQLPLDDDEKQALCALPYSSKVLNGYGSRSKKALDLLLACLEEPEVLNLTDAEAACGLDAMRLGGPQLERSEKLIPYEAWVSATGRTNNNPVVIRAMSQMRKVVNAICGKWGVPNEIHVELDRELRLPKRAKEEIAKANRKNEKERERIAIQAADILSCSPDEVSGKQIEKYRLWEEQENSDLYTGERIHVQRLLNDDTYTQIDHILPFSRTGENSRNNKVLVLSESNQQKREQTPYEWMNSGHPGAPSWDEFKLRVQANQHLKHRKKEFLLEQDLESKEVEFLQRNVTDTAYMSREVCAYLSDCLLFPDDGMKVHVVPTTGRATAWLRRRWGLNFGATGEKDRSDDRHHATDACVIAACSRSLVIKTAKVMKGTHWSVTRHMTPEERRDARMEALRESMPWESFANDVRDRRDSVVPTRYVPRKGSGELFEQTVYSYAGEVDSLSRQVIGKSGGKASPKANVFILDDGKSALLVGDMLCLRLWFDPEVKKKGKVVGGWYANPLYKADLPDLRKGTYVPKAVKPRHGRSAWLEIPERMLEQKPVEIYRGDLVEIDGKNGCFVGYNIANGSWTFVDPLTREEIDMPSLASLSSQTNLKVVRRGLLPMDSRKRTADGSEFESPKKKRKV
Assay: cell_activity; PAM NNNNGT; U2OS-EGFP
Settings: tags: N-terminal SV5 tag and NLS, C-terminal NLS

Binder | activity
B1 | > 90 % EGFP KO
B2 | > 90 % EGFP KO
B3 | > 90 % EGFP KO

Biological target: T2, EQSC Type II Cas (metagenomic)
T2 chain: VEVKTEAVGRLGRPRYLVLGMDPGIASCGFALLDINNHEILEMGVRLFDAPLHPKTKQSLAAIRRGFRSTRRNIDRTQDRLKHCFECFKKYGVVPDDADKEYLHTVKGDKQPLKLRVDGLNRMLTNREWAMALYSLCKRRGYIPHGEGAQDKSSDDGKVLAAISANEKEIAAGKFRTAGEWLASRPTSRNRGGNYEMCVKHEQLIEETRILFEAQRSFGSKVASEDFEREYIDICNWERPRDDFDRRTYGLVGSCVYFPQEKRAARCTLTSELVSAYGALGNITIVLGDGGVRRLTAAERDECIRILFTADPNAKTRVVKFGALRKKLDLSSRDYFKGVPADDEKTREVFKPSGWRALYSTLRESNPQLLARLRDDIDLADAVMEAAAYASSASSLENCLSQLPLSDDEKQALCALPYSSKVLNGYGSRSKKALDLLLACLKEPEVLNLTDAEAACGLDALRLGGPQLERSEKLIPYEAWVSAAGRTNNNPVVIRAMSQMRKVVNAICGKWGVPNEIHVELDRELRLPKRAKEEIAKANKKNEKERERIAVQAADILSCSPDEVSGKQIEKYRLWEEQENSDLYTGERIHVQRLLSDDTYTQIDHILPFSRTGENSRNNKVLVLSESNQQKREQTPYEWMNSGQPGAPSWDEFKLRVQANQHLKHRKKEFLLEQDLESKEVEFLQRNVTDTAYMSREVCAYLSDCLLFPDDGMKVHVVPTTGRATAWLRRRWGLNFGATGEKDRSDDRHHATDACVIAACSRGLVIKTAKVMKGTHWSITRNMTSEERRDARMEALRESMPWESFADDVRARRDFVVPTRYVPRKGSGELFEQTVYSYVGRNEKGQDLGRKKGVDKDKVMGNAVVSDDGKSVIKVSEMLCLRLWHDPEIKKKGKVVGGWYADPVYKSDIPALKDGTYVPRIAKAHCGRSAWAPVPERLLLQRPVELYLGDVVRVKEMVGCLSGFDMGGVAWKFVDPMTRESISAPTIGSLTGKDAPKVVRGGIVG
Assay: cell_activity; PAM NNNNCNNA; U2OS-EGFP
Settings: tags: N-terminal SV5 tag and NLS, C-terminal NLS

Binder | activity
B4 | > 90 % EGFP KO
B5 | > 90 % EGFP KO
B6 | > 90 % EGFP KO
